Numbering of substitutions follows the chain as printed. Values belong to the molecule of their own block, whether it stands above or below them.
Tests used:
[1] = target: T1, biotinylated cynomolgus 5T4 with His-Avi tag (produced in-house) (cynomolgus monkey, UniProt Q4R8Y9 35-355, biotin on the Avi tag); assay: Octet, biotinylated antigen on streptavidin biosensors, antibody at 500 nM (bivalent)
T1 construct: also called cyno 5T4; Cyno 5T4 Octet (bivalent); not shown: C-terminal 6-His-Avi tag
T1 sequence: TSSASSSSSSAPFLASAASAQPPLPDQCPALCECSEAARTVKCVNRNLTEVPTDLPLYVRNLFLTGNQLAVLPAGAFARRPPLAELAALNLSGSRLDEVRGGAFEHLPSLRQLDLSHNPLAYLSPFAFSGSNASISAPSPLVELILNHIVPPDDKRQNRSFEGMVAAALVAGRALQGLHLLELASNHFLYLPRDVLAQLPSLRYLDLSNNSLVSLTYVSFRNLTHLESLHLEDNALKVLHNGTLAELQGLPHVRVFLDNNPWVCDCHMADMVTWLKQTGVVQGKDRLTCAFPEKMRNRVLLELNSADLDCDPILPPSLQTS

[2] = target: T2, biotinylated mouse 5T4 with His-Avi tag (produced in-house) (mouse, UniProt Q9Z0L0 32-361, biotin on the Avi tag); assay: as above
T2 construct: also called Mouse 5T4 Octet (bivalent); not shown: C-terminal 6-His-Avi tag
T2 sequence: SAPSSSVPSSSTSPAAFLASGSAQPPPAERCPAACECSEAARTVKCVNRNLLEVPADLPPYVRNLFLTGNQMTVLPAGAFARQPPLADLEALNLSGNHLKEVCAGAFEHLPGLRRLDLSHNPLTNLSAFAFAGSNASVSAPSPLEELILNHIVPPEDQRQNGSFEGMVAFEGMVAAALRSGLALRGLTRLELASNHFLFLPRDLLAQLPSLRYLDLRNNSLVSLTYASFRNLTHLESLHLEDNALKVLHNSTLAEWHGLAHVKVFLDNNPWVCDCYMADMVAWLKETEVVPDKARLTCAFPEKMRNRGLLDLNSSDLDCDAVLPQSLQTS

[3] = target: T3, cynomolgus 5T4 on cells (HEK-cyno-5T4, transfected HEK293 and CHO cells) (cynomolgus monkey, UniProt Q4R8Y9 35-420); assay: flow cytometry on HEK-cyno-5T4 cells
T3 construct: also called HEK-cyno-5T4 cells
T3 sequence: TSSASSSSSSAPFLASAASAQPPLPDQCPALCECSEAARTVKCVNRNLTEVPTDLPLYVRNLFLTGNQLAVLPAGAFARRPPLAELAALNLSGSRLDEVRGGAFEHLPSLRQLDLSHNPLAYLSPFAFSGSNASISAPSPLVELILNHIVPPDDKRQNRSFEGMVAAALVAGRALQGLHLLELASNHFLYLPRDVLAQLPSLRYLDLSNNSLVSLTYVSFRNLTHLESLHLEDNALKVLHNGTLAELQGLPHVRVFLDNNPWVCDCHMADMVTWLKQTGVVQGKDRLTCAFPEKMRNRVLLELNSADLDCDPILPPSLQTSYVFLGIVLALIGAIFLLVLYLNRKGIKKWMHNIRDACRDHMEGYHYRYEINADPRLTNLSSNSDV

human 5T4 = target: T4, human 5T4 (Homo sapiens, UniProt Q13641); assay: Octet bivalent binding assay, human 5T4; parameters: The extracellular domain of human 5T4 was purchased from Acro Biosystems (biotinylated human 5T4 His-AVITAG™ Acro Cat No. TPG-H83Eb) or produced; made in house; key: +: An increase in signal during the association step above the negative control was considered as binding to the antigen; details: 200 nM biotinylated antigen immobilized, antibody at 500 nM
T4 sequence (Q13641 32-355 limits assumed): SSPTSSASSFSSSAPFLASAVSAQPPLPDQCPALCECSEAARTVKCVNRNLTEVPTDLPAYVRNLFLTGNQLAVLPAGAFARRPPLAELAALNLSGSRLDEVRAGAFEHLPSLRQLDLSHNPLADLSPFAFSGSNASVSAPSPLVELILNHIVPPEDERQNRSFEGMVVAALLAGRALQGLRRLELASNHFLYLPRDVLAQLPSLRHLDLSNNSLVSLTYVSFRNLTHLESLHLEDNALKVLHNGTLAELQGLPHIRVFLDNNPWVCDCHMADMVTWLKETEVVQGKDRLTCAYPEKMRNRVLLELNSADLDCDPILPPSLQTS
Excerpt: (§1) Bivalent binding assays were employed to provide data on whether antibodies with VH/VL obtained by the phage display in Example 1 bound immobilized 5T4 from all three clinically relevant species: human, cynomolgus monkey (cyno), and mouse. For the bivalent binding and cross-reactivity assays the 5T4 human, cyno, and mouse antigens were synthesized using sequences from the protein database and expressed as biotinylated proteins using a his-avi tag and in vivo biotinylation with co-expressed BirA enzyme.
(§2) A standard Octet-based assay was used to determine qualitatively if each antibody bound to each antigen. For these assays, 200 nM biotinylated antigens were immobilized on streptavidin biosensors in 1× kinetic buffer (ForteBio). The loaded sensors were then dipped in wells containing an antibody of interest at 500 nM and the association binding signal was monitored. An increase in signal during the association step above the negative control was considered as binding to the antigen.

cyno 5T4 = target: T5, cyno 5T4 (Macaca fascicularis, UniProt Q4R8Y9); assay: Octet bivalent binding assay, cyno 5T4; parameters: species or system cynomolgus monkey; key: +: An increase in signal during the association step above the negative control was considered as binding to the antigen; details: 200 nM biotinylated antigen immobilized, antibody at 500 nM
T5 construct: made in house
T5 sequence (Q4R8Y9 35-355 limits assumed): T1 sequence
Excerpt: as §1, §2

mouse 5T4 = target: T6, mouse 5T4 (Mus musculus, UniProt Q9Z0L0); assay: Octet bivalent binding assay, mouse 5T4; parameters: key: +: An increase in signal during the association step above the negative control was considered as binding to the antigen; details: 200 nM biotinylated antigen immobilized, antibody at 500 nM
T6 construct: made in house
T6 sequence (Q9Z0L0 32-361 limits assumed): T2 sequence
Excerpt: as §1, §2

HEK-5T4 cells = assay: Internalization assay (Incucyte FabFluor-pH), HEK-5T4 cells; type: cell-based
Procedure: Adherent cells were harvested at 70-90% confluence and were plated overnight at 37° C. in a 96-well black, clear/flat bottom half-area plate (Corning 3882) at 20,000 cells/well in 50 μL culture media. For suspension cell lines, 96-well plates were coated with poly-L-ornithine solution (Millipore-Sigma) for 1 hour at 37° C. and cells were seeded at 40,000 cells per/well density in 50 μL culture media, about 1 to 2 hours prior to the assay. Antibodies were diluted in cell culture media, mixed with 3× molar concentration of Incucyte human FabFluor-pH red antibody labelling reagent and incubated for 15 minutes at room temperature. 2× final concentration of all dilutions of antibody/FabFluor mix was prepared. 50 μL of 2× antibody/Fab-Fluor mix was then directly added to every well with pre-seeded cells in duplicates and plate was quickly transferred to Incucyte. Plates were then scanned every 30 minutes for up to 24 hours. Care was taken to begin the first scanning (0 hour) within 2 to 3 minutes of adding antibody/FabFluor mix to the cells. Plates were analyzed by reading the red signal generated overtime, normalized to the % confluence of cells in that well. Few antibodies were tested at different concentrations on target cell lines, and the best concentration was selected based on a good signal:noise ratio.

binding result [1]: binds
binding result [2]: binds
B1: mAbA17 (antibody, V domains shown)
VH: EVQLVESGGGLVQPGGSLRLSCAASGFTFSRYWIHWVRQAPGKGLEWVAAIFPYSGSTLYADSVKGRFTISADTSKNTAYLQMNSLRAEDTAVYYCARSPSRSILPSGLDYWGQGTLVTVSS
VL: DIQMTQSPSSLSASVGDRVTITCRASQSVSSAVAWYQQKPGKAPKLLIYSASSLYSGVPSRFSGSRSGTDFTLTISSLQPEDFATYYCQQGDGSPYTFGQGTKVEIKR
notes: also called Antibody mAbA17

binding result [1]: binds
binding result [2]: binds
binding result [3]: binds
B2: mAbA15 (antibody, V domains shown)
VH: EVQLVESGGGLVQPGGSLRLSCAASGFTFSSYYIHWVRQAPGKGLEWVAYITSTGSYTEYADSVKGRFTISADTSKNTAYLQMNSLRAEDTAVYYCARYDRSTRYSGLDYWGQGTLVTVSS
VL: B1 VL with G91A, D92Y, G93A, S94T, Y96V
notes: also called Antibody mAbA15

B3: mAbA17: 5T4 antibody comprising VH of SEQ ID NO:62 and VL of SEQ ID NO:63 (antibody, V domains shown)
VH: B1 VH
VL: DIQMTQSPSSLSASVGDRVTITCRASQSVSSAVAWYQQKPGKAPKLLIYSASSLYSGVPSRFSGSRSGTDFTLTISSLQPEDFATYYCQQGDGSPYTFGQGTKVEIK
modifications: Antibody mAbA17 VH Sequence; Antibody mAbA17 VL Sequence
Human 5T4 Octet (bivalent) (human 5T4): +
Cyno 5T4 Octet (bivalent) (cyno 5T4): +
Mouse 5T4 Octet (bivalent) (mouse 5T4): +

binding result [3]: binds
B4: mAbA4 (antibody, V domains shown)
VH: EVQLVESGGGLVQPGGSLRLSCAASGFTFSRYYIHWVRQAPGKGLEWVAFISPGGSYTYYADSVKGRFTISADTSKNTAYLQMNSLRAEDTAVYYCAREYYSMGVLDYWGQGTLVTVSS
VL: B1 VL with G91A, D92Y, G93E
notes: also called Antibody mAbA4

B5: mAbA4: 5T4 antibody comprising VH of SEQ ID NO:25 and VL of SEQ ID NO:26 (antibody, V domains shown)
VH: B4 VH
VL: B3 VL with G91A, D92Y, G93E
modifications: Antibody mAbA4 VH Sequence; Antibody mAbA4 VL Sequence
internalization in HEK-5T4 cells (HEK-5T4 cells): strong internalization

B6: mAbA15: 5T4 antibody comprising VH of SEQ ID NO:44 and VL of SEQ ID NO:45 (antibody, V domains shown)
VH: B2 VH
VL: B3 VL with G91A, D92Y, G93A, S94T, Y96V
modifications: Antibody mAbA15 VH Sequence; Antibody mAbA15 VL Sequence
internalization in HEK-5T4 cells (HEK-5T4 cells): strong internalization
Human 5T4 Octet (bivalent) (human 5T4): +
Cyno 5T4 Octet (bivalent) (cyno 5T4): +
Mouse 5T4 Octet (bivalent) (mouse 5T4): +

Source: patent publication US20250295803A1, “5T4 ANTIBODY-DRUG CONJUGATES AND USES THEREOF” (EXELIXIS, INC., priority 2022, published 2025)
